From patent publication US20250339493A1, “METHODS OF USING NEUREGULIN-4 COMPOUNDS” (priority 2022, published 2025)

Assays:
[1] = Single-ascending dose study in healthy participants: plasma pharmacokinetics after single SC or IV dose; parameters: species or system human; conditions: in vivo
Source text: A multiple-center, investigator- and participant-blind, randomized, placebo-controlled, single-ascending dose study is designed to evaluate the safety and tolerability of a single subcutaneous (SC) dose or an intravenous (IV) dose of the NRG4 compound of SEQ ID NO:1 in healthy participants. Cohorts 1-5 are intended to receive a single SC dose of the NRG4 compound or placebo. Cohort 6 is used to assess a single IV injection of the NRG4 compound. This cohort is to enable an estimation of absolute bioavailability of the NRG4 compound. Doses for the cohorts are as follows: • Cohort 1:1 mg (6 participants NRG4 compound; 2 participants placebo)· • Cohort 2:3 mg (6 participants NRG4 compound; 2 participants placebo). • Cohort 3:10 mg (6 participants NRG4 compound; 2 participants placebo). • Cohort 4:30 mg (6 participants NRG4 compound; 2 participants placebo). • Cohort 5:60 mg (6 participants NRG4 compound; 2 participants placebo). • Cohort 6 (8 participants 3 mg NRG4 compound IV) 48 participants received a dose of NRG4 compound or placebo, with eight males, and 40 females. The age range of the participants was 25 to 65 years. A stable dose of antihypertensive medication, with the exception of beta blockers, and lipid lowering medication were allowed. The study intervention was administered either via a single SC injection into the lower abdominal region or as an IV bolus from a syringe to an indwelling venous catheter. Study interventions administered are summarized in Table 2: On Day 1, participants receive a single dose of their assigned treatment (either NRG4 compound or placebo) for first 5 cohorts and NRG4 compound for the final IV cohort. PK sampling and safety assessments, including AEs, medical assessments, clinical laboratory tests, vital signs, and ECGs, were performed at predefined times through discharge from the CRU on Day 4. Dose escalated cohorts were only initiated after satisfactory review of the safety results from all participants receiving NRG4 compound in the preceding cohort through Day 4. Participants returned to the CRU for outpatient visits on Days 7 and 15 for PK, safety, and immunogenicity assessments, as appropriate. Follow-up visit for PK, safety, and immunogenicity monitoring occurred on Day 29. At the visits and times specified in the protocol venous blood samples of approximately 3 mL each were collected to determine the plasma concentrations of NRG4 compound. PK parameter estimates for NRG4 compound were calculated by standard noncompartmental methods of analysis using Phoenix WinNonlin Version 8.1. […] The PK parameters were summarized and listed separately for SC and IV-dosed cohorts. The plasma concentrations of the NRG4 compound were plotted and summarized. The dose proportionality for SC doses of NRG4 compound were assessed for the log-transformed Cmax, AUC (0-∞), and AUC (0-tlast) using a power model (where log-dose acted as an explanatory variable) to estimate ratios of dose normalized geometric means and corresponding 90% CIs. The estimated ratio of dose-normalized geometric means of PK parameters between the highest and lowest doses were used to assess dose proportionality.

[2] = Rat continuous SC infusion toxicology study; assay type: in vivo
Protocol: (§1) Table 3 presents the estimated margins of safety of 21 mg/day infused for 24 hours and 140 mg/day infused for 96 hours doses of NRG4 compound. The anticipated therapeutic benefit for patients with HFrEF outweighs any potential risks identified in the nonclinical safety profile.

[3] = Cynomolgus continuous SC infusion toxicology study; assay type: in vivo, cynomolgus monkey
Protocol: as §1

[4] = Single-ascending dose study in healthy participants: safety and tolerability; assay type: in vivo
Source text: A multiple-center, investigator- and participant-blind, randomized, placebo-controlled, single-ascending dose study is designed to evaluate the safety and tolerability of a single subcutaneous (SC) dose or an intravenous (IV) dose of the NRG4 compound of SEQ ID NO:1 in healthy participants. Cohorts 1-5 are intended to receive a single SC dose of the NRG4 compound or placebo. Cohort 6 is used to assess a single IV injection of the NRG4 compound. This cohort is to enable an estimation of absolute bioavailability of the NRG4 compound. Doses for the cohorts are as follows: • Cohort 1:1 mg (6 participants NRG4 compound; 2 participants placebo)· • Cohort 2:3 mg (6 participants NRG4 compound; 2 participants placebo). • Cohort 3:10 mg (6 participants NRG4 compound; 2 participants placebo). • Cohort 4:30 mg (6 participants NRG4 compound; 2 participants placebo). • Cohort 5:60 mg (6 participants NRG4 compound; 2 participants placebo). • Cohort 6 (8 participants 3 mg NRG4 compound IV)
48 participants received a dose of NRG4 compound or placebo, with eight males, and 40 females. The age range of the participants was 25 to 65 years. A stable dose of antihypertensive medication, with the exception of beta blockers, and lipid lowering medication were allowed. […]

[5] = rat non-repro NOAEL (F), 16.1 mg/kg/day, 96 h SC infusion
[6] = rat, in vivo, sc, 1.6 mg/kg/day
[7] = cynomolgus monkey, in vivo, sc, 156 mg/kg/day
[8] = monkey NOAEL (M + F), 12.6 mg/kg/day, 96 h SC infusion

NRG4 compound: NRG4 compound comprising amino acid sequence SEQ ID NO:1: GGGGSGHEEPCGPSHKSFCLNGGLCYQIPTIPSPFCRCVENYTGARCEKVEL; selective HER4 binding (GGGGSGHEEPCGPSHKSFCLNGGLCYQIPTIPSPFCRCVENYTGARCEKVFL)
geometric mean F (absolute bioavailability) [1]: 104%
geometric mean CL ([1]; iv): 6.01 L/h
geometric mean Vss ([1]; iv): 13.6 L
geometric mean Vz ([1]; iv): 22.0 L
geometric mean t1/2 ([1]; iv): 2.53 h
dose proportionality of AUC (0-0) ([1]; sc): slightly higher than proportional
dose proportionality of Cmax ([1]; sc): slightly less than proportional
dose proportionality of PK ([1]; sc): increase approximately proportionally
geometric mean CL/F ([1]; sc): 4.88 to 6.05 L/h
geometric mean Vz/F ([1]; sc): 19.2 to 24.3 L
geometric mean t1/2 ([1]; sc): 2.45 h
mean CL/F ([1]; sc): 4.9 to 6.05 L/h
mean half-life ([1]; sc): 2.20 to 3.21 h
median tmax ([1]; sc): 2.0 h
tmax range ([1]; sc): 1.00 to 4.08 h
t½ ([1]; sc): 2.5 to 3 h
AUC0-t [2, 5]: 53.3 µg·h/mL
Cave, ss [2, 5]: 540 ng/mL
Non-repro NOAEL (F) dose ([2]; rat, female, continuous SC infusion 96 h): 16.1 mg/kg/day
AUC0-t [2, 6]: 7.17 µg·h/mL
Cave, ss [2, 6]: 72 ng/mL
LOAEL (M) dose ([2]; rat, male, continuous SC infusion 96 h): 1.6 mg/kg/day
Cave, ss Multiple, Max Dose ([3]; cynomolgus monkey, in vivo): 16.9
Cave, ss Multiple, Start Dose ([3]; cynomolgus monkey, in vivo): 109
AUC0-t [3, 7]: 1840 µg·h/mL
Cave, ss [3, 7]: 18600 ng/mL
AUC0-t [3, 8]: 148 µg·h/mL
Cave, ss [3, 8]: 1490 ng/mL
NOAEL (M + F) dose ([3]; monkey, continuous SC infusion 96 h): 12.6 mg/kg/day
overall safety and tolerability ([4]; in vivo): safe and well-tolerated
deaths, serious adverse events, discontinuations due to adverse events ([4]; single SC 1 to 60 mg or IV 3 mg, healthy participants): no deaths, serious adverse events (SAEs) or discontinuations due to adverse events were reported
